Test results as given in patent US20150266975, “RNA-SPECIFIC BINDING ANTIBODY” (Korea Advanced Institute of Science and Technology, published 2015).

Biological target: T1, MabBC200-A3 (Homo sapiens)
T1 chain 1: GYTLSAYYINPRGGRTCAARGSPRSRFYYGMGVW
T1 chain 2: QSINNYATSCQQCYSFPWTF
Assay: filter; room temperature
Details: hairpin with internal loops

B1: RNA (51-120) (ssRNA)
RNA: GGGAGGCGGGAGGAUAGCUUGAGCCCAGGAGUUCGAGACCUGCCUGGGCAAUAUAGCGAGACCCCGUUCUCCC
With B1 the Kd was ~10 nM.
